Experimental findings from patent US20190092852A1 (Genentech, published 2019) are described below.

The target in assay [1] is T1, biotinylated cyno IL-33 (cynomolgus monkey, UniProt A0A2K5W3I1 112-269, biotin-labeled with EZ-LINK NHS-PEG4-Biotin).
T1 construct: also called biotin-cyIL-33
T1 sequence: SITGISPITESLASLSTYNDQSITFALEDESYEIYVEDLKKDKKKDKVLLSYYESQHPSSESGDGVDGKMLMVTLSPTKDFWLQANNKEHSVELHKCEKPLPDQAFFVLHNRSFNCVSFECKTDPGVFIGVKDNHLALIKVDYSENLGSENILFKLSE
The experiment in a line: competitive ELISA, biotin-cyIL-33 to coated hST2-Fc. The method, boiled down:
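Recombinant human ST2-Fc coated at 1 μg/ml; biotin-IL-33 (final 20 pM human, 45 pM cyno) premixed 1 h RT with serially diluted antibody (0–300 nM final), then bound to ST2-Fc 1 h RT. Streptavidin-polyHRP/TMB, A450; IC₅₀ from four-parameter fit, max blocking relative to IL-33-alone signal minus background.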
(In general: In an ELISA, binding on a coated surface is turned into a signal by an enzyme label.)

Assay [2] has as its target T2, human IL-33 (R&D Systems, #3625-IL-010/CF) (human, UniProt O95760 112-270).
T2 sequence (looked up): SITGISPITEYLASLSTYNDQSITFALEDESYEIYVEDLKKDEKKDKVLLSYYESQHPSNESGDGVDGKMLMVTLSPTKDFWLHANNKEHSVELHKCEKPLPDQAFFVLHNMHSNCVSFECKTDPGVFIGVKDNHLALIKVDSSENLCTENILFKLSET
Briefly: cell-based or functional assay.

For assay [3], the target named is T2, human IL-33 (R&D Systems, …). Briefly: cell-based or functional assay. The source holds these as a separate data set.
Assay [4] shares this target. Briefly: cell-based or functional assay. The source holds these as a separate data set.
The target is the same in assay [5]. The experiment in a line: SPR Biacore T200, 37 C. Summed up:
(§1)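 Antibodies captured via anti-Fc on CM5 chip; IL-33 injected at 3.7–100 nM (three-fold series), 4 min association, 10 min dissociation, 30 μl/min, ADA pH 7.4 buffer with 0.15 M NaCl, EDTA, Tween-20, at 25 °C or 37 °C. KD = koff/kon from 1:1 Langmuir fit; t1/2 = ln(2)/(60*koff).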

Assay [6] deals with T3, cyno IL-33 N-His (cynomolgus monkey).
T3 chain: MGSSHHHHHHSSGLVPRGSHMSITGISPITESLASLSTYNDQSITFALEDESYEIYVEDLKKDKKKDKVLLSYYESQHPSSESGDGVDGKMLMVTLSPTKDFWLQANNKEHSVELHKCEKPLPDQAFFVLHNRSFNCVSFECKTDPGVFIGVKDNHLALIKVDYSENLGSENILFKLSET
Briefly: SPR Biacore T200, 37 C. The method, boiled down: as §1

Assay [7] has as its target T4, biotinylated human IL-33 (human, UniProt O95760 112-270, biotin-labeled with EZ-LINK NHS-PEG4-Biotin).
T4 construct: also called biotin-huIL-33
T4 sequence (looked up): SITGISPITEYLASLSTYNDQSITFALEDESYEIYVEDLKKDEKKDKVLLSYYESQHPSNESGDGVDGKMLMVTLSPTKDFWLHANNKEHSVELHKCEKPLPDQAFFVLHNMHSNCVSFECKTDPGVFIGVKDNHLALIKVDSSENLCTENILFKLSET
Briefly: competitive ELISA, biotin-huIL-33 to coated hST2-Fc.

B1: H4H9659P (antibody, IgG4, V domains shown)
VH: QVQLVQSGAEVKKPGASVKVSCKASGYTFNSYGISWVRQAPGQGLEWMGWISSHNGNSHYVQKFQGRVSMTTDTSTSTAYMELRSLRSDDTAVYYCARHSYTTSWYGGFDYWGQGTLVTVSS
VL: DIQMTQSPSSVSASVGDRVTITCRASQGFSSWLAWYQQKPGKAPQLLIYAASSLQSGVPSRFSGSGSGSDFTLTISSLQPEDFATYYCQQANSFPLTFGGGTKVEIK
notes: also called RG7
Turning to B1, in assay [1], the IC50 – broadly, the concentration that inhibits the measured activity by half – came to 47 nM and the “Maximum Blocking” value was determined as 42%. The “Ph-p38 MFI at 2 nM Ab (500 pM human IL-33, primary basophils)” value in assay [2] came to 49 MFI. Further, the “Ph-p38 MFI at 0.4 nM Ab (500 pM human IL-33, primary basophils)” value in assay [3] stood at 119 MFI. Moreover, the “IC50; IFN-gamma ELISA, primary human NK cells, 260 pM hIL-33 + IL-12” value in assay [4] turned out to be 5.1e-10 M. For the same molecule, in assay [5], the Kd (in general, a measure of binding affinity in units of concentration) amounted to 0.462 nM; the koff (in general, a measure of how fast the partners let go of each other) was found to be 0.000498 s⁻¹; the kon (as a rule, the rate constant with which the complex forms) turned out to be 1.08e+06 M⁻¹ s⁻¹; the t1/2 was 23 min. In assay [6], this molecule registered a Kd of 4.13 nM, a dissociation rate constant (koff) of 0.00114 s⁻¹, an on-rate (kon) of 277000 M⁻¹ s⁻¹ and a t1/2 of 10 min. In assay [7], the half-inhibitory concentration (IC50) amounted to 0.23 nM and the “Maximum Blocking” value was 88%.

B2: 10C12.38.H6.87Y.58I IgG4 (antibody, V domains shown)
VH: EVQLVESGGGLVQPGGSLRLSCAASGFTFSSFSMSWVRQAPGKGLEWVATISGGKTFTDYVDSVKGRFTISRDDSKNTLYLQMNSLRAEDTAVYYCTRANYGNWFFEVWGQGTLVTVSS
VL: EIVLTQSPATLSLSPGERATLSCRASESVAKYGLSLLNWFQQKPGQPPRLLIFAASNRGSGIPARFSGSGSGTDFTLTISSLEPEDFAVYYCQQSKEVPFTFGQGTKVEIKR
notes: also called anti-IL33 10C12.38.H6.87Y.58I IgG4
Consider B2, for which, in assay [1], the IC50 was determined as 0.43 nM and the “Maximum Blocking” value was found to be 87%. In addition, the “Ph-p38 MFI at 2 nM Ab (500 pM human IL-33, primary basophils)” value in assay [2] is 23 MFI. The “Ph-p38 MFI at 0.4 nM Ab (500 pM human IL-33, primary basophils)” value in assay [3] is 34 MFI. For the same molecule, the “IC50; IFN-gamma ELISA, primary human NK cells, 260 pM hIL-33 + IL-12” value in assay [4] turned out to be 3.3e-11 M. In assay [5], this molecule showed a dissociation constant Kd of 0.0889 nM, a koff of 0.000547 s⁻¹, an on-rate constant (kon) of 6.16e+06 M⁻¹ s⁻¹ and a t1/2 of 21 min. Also, in assay [6], the Kd was determined as 0.476 nM, the koff was determined as 0.000804 s⁻¹, the on-rate constant (kon) turned out to be 1.69e+06 M⁻¹ s⁻¹ and the t1/2 turned out to be 14 min. Moreover, in assay [7], the half-inhibitory concentration (IC50) turned out to be 0.021 nM and the “Maximum Blocking” value turned out to be 92%.
